This note sets out measurements from the domain aggregation screens of Martell et al. (2025).
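Further: 20 min heating vs room temperature control held 20 min.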

The nature of the data set: soluble fraction after stress (log2 fold change); higher = more stays soluble; pooled small domains, quantitative proteomics. To be noted: stress: 75 degC.
For the sequence “HMNSVSIAPEMLNWVIAHIQMNSLPKQIVEHLTAWISGQKEPTFNQIEKVSRATGIPLGYFFLEQPPKE”, the “soluble fraction (log2)” value was -2.51. For “HMNSYKGELLVDDKNIRLDLYLFNQFNFFSRTKIKNYILKGNVLVNNNKTSPSYILKGSEKIYYDFSVS”, the “soluble fraction (log2)” value is -3.21. Take “HMNTEVDKVLLRSGEAYFGEVLLRNDELVMMKTQDGARFQFPVSEIKSIEKVSVADALRHINS”: the “soluble fraction (log2)” value stood at 0.263.

With “HMNTGFPIILETSDAANLTVGAPIMYRGVEVGKIRNMELNSLGDRVLIHILIGHKYQHLVRQNSEFWFSS”, the “soluble fraction (log2)” value was -4. Turning to “HMNTKDRIKQLAAQRKITIAELERKLHIANGTIGKWDKQNPSIEPLKKLADYFGVTTDYLLGRT”, the “soluble fraction (log2)” value was -0.381. Regarding “HMNTKLKPLYLLDIFREMTDERHRMTVPELLEELQRRGITAERKGIYRDIDALIQYGADIKHTGTGYYLAR”, the “soluble fraction (log2)” value is -0.93.

In the case of “HMNTKLSYSDLIEKIEAGQVEKVELDAGGSSAIVKLKNDNIEKRVNVPSIDNLMENLQDNMKTGNISVTE”, the “soluble fraction (log2)” value was 0.168.

On to “HMNTLLGLSNSFQDNKDLENANSISRRFISYRPRSEAELRIRLLKVFSHEIVLESVAQMYREGLLNDQRF”, for which the “soluble fraction (log2)” value was -3.18.

As for “HMNTLTKEDIQKAIDVIPIDFKSVVILNLVEGFSYKETAEILEIPIGTVMSRLHRGRKILQKLLWEYSSSK”, the “soluble fraction (log2)” value was -1.4. The figure for “HMNTTTTKVVSVSSLNMRSGPSTSYNIIEVLTKDTQVEVISVEDGWAKIKYNSKTGYVSNQYLSDKK” is -0.934; for “HMNTVAKELATQATQAKKRAFLDAYAETGIIKRAAEIAGIERKSHYLWLEKDPEYVEAFKSAGEQ” it is 0.427; for “HMNTVSVGNLGLSVRAVNALKQAGIDTYDKLQELSWEELLLIPKLGQVTAAEIYRFITSYKKG” it is -1.56.

For “HMNVAETITLGKRLFNHALTILGKKQRNISRKQLKNFLNDLGLKDSKDLYESIGTGDKNPILMAQLLLG”, the “soluble fraction (log2)” value is -0.512.

On to “HMNVAVGNSKLVGVAGERAYFVNGVGAAARTLSLQVGDALPTGEKVRRIERDGVTMTGASGDVRLSVLP”, for which the “soluble fraction (log2)” value worked out at 0.00812.

“HMNVDALIGTKGIVVQPIRPFAVGQVKVNGQVWSAVGKTPETDIEQGREVKVHAIEGVKLVVTPT”: the “soluble fraction (log2)” value turned out to be 0.501.

With “HMNVDALVGMPARVTRAFVQGAGEVKLDNGETWTARLSAGVTDAEASVGQTVSVIAVRGAAVEVAPE”, the “soluble fraction (log2)” value was determined as 0.0183. On to “HMNVDSLIGKKARVLEDIDNLNAKGQVSIDGMEWTARSEDGSEIKKDALVEVVAIEGVKAIVKQ”, for which the “soluble fraction (log2)” value amounted to 0.242. The figure for “HMNVEQQNQARENIKRLMEEQGLSQPKLSEKAGIAFGTLSRILRGKQDLTIQTAEKIADALGLSVYDLAE” is 0.31; for “HMNVKVSVDDIARPGLMASGRVTFADGNRGMWYVDEMGRLGIDPEVEGYQPSEADIQAFQRELQSVMES” it is -0.00333; for “HMNVNSQQINDLEKSIQKFFDKDIKNYLNQNLSNDRMISKNEIDKIILLYYGSDKEPTLDEIKSIFN” it is -0.216. With “HMNVNTHKTLILNSTFQPLSLATPQRALALLFSKKINVLKESDIKLRSVGQSVAIPKVAVLTYFVKA”, the “soluble fraction (log2)” value was -0.409. “HMNVPFGYTIKDGLLVEQPDEKAILDNILTWKKGQMTVAEIAKKTGMETWKIYGILNYWRNK”: the “soluble fraction (log2)” value was -1.14. The figure for “HMNVRAYKVSKESELTVEEKLEAVRGYGVADLLYVIREFEENPGKYEPEVIKLIVQQLTDKGIM” is 0.0392; for “HMNVRRSRTHEKVTTYQGYDIFINKEPNQRGMFTSAPMRGDNEYSNLRGEGKSKQDAVNMTKEKIDEIAA” it is 0.748. With “HMNVSVSITKELQVYINDERISSSALESTLKSKLAGIENPTIILRAEEGVPIEKAVNVMDIANRNRYKIVL” the figure was -1.32.

With “HMNVYAGTMINVVGLQVEDAASRLRGLFYSVKIVEEESQEPDGKVLRQNIAEGTKDLEAWTLVELTVSKYV”, the “soluble fraction (log2)” value was -2.73. With “HMNVYEVKFGDTLDEIIKTYLFDIPVKKSILRQAVILANPHAFRRNNPHWMYSDRQLKLPELQDIRRAIF” the figure was -0.317. On to “HMNYGDVIEGQIMHVDRDELLVDIGSKSEGIIPAREFSTLTDEERAALSVGDHVLVFVVQAENQEGQAV”, for which the “soluble fraction (log2)” value worked out at 0.297. Turning to “HMNYIEWKNTFKKYLYLLPIKEEKETLAYFDEQYNKLNPKDLDNVENIFSDPIDKAAFVVAFYLEMEDEIK”, the “soluble fraction (log2)” value was -0.895. In the case of “HMNYIGADAAKNMAAADAQVDTANASFSGANLGEKNGLSYYQVDFTANGREYHYAIDAMTGTVIESSSAAS”, the “soluble fraction (log2)” value amounted to 0.122.

For the sequence “HMNYNEKGEYTRTLTSGSETAVMTYRNFGETLDVALFKNGVQTDSLRLIKSEPGVLYRQSNGQFEKI”, the “soluble fraction (log2)” value is -0.158. Consider “HMNYSIVNVGFNNKSLFLRSAPGYSASRLLLPFATERAFVRETLSNGWSRVIVRGTEGYLPTEYVAD”, for which the “soluble fraction (log2)” value is 0.345. With “HMNYSKQRETILKVLRSTRSHPSVNWIYENVKKEIPDVGLATVYRNLKQLEAAGEIMRIQGDFPEERWDGF” the figure was -1.65; with “HMNYTALLNNFSENMKKRRVELSLSQKELASIVGVSVRTIQNYENKKTIPTSAVMESISIALDMGLEKMID”, -1.91; with “HMNYTQAQIDRANAVSLEDFLRTQGETLIKSGREYRWKEHDSLTVRGNKWFRHSQSKGGYPIDFVMEFTA”, 0.108. For the sequence “HMNYYYKDNQYWYVGFRYDERLVKEIKRFVGAGYNPENKEWYIPFTLPTVAPLQKWLHDNGFVEGMNYYP”, the “soluble fraction (log2)” value was -2.56. For “HMPAAFALLTDREREIAALIAQRLTNREIAEKLYLSEGSVKQYVNQLYAKLGIEGDTRTKRRRLAEQAK”, the “soluble fraction (log2)” value was -0.641. Take “HMPAAKARTWQEATHAFQRDFLLETLRRARFNAADAADQLGLARPALYTTAKRLGLDLVAERQRWEAEAH”: the “soluble fraction (log2)” value was -0.668. With “HMPAAPVFLQKDLLDAGLIGQADSAARREKLGKILGIGYGNGKVMLQRLNSFGIERDAFEQAVQE” the figure was 0.081. The figure for “HMPAASDALAGELAQIARLDIAKLLAGDLSEADWSRITSATVQLSERHPDASDELTALVERIDTAYSARAT” is 0.0397.

With “HMPAEGWEASGDTWRYRQKDGSYITNAWVQDTDGKWYYFDESSLMVRNQTTSDGYYVGEDGVWTET”, the “soluble fraction (log2)” value was -0.136. With “HMPAELGVVVRNANLRSGPGTKYAIVGSAPAGTTVRIAGTNKAGDWYHLSSGRWIAAFLVDRN”, the “soluble fraction (log2)” value was -1.99. In the case of “HMPAERLSMRKIYEILRLKYGHGLSNREVALSVSVSRSTVADYLLRAQAAGLSWPLPDGLDETGLEQRLFP”, the “soluble fraction (log2)” value was -3.96. As for “HMPAFGALTLRQRDLVELIAQGLDNSQIAARLGLAEKTVRNHITMIFNKLEMENRSQVIVRARESGFGAVR”, the “soluble fraction (log2)” value was -1.87. With “HMPAKIIKKSFVYNPIHRDTEYLAQFLQGEGQVSASGDKLVYYGTVEDISRIKSVLQSVDTPS”, the “soluble fraction (log2)” value was determined as 0.169.

Consider “HMPALATKDSVLDGRAEVVSYVRDTSVFYLRVRVPQKQGYRSRRIDGVSTLPEAITKALDTYMDLGT”, for which the “soluble fraction (log2)” value was -2.6. Take “HMPALELLVESKKPLLIHGEKIAEDINLFDREKYFIDDELIRIVKEFPSLKIILEHVSSKYGAD”: the “soluble fraction (log2)” value was -2.18. Take “HMPAMYKAERMNQILSILADQGDVDVGTLARQFGVSLVTIRKDLTYLESSGQLVRTHGGAIAVA”: the “soluble fraction (log2)” value is -0.707. “HMPASVEYIRLAAEQMTGQQVTIIEQPGNYAFILRIHLNDIYSLDLAALRARIDELKPAHLTYTVEQYD”: the “soluble fraction (log2)” value is -2.86. With “HMPATTMMVVVDRDLPYGHVLTDRDVRLETRRATSPGASVAFTSIDPVLGQSLTRPLGAGTPVGRADLR” the figure was -0.218; with “HMPAVVEFDVKPRGEVLVDGIWYGRIPELREVELRPGRHHLRVQNAGHPSLDLVVTLEPGERMTVTHTFA”, -0.529.

As for “HMPDAENFRYRVPYTTEQNRLQYYEGDIRAENADKARDQVMQDAQKYFAQNTAFTPNYIDTDIISLD”, the “soluble fraction (log2)” value came out at 0.946. On to “HMPDFAENAVYGKQREDSLYAHAYKHFQLGDTTTVRAAEHLSAEIYPLGQHRPKFMFLNAVTR”, for which the “soluble fraction (log2)” value was found to be 0.309. The figure for “HMPDITAAVARTLQALRADRGWSLDQLAARSGVSKGVLVALEQGRSNPNLATLARIGDAFGVPVTLLVDL” is -1.45; for “HMPDPHSEARNIVLNQLNFMPRSRKELETALAKRNIEADVAKIVLDRFEEIGMVDDAAYAEL” it is 0.121; for “HMPDPLYLINGKIVNKSDFNNIDPRSIQSIEVLKANKALEAFGNDGKNGVIKITLKSSNDQM” it is -0.104. For the sequence “HMPEEGPSEDGNSFTAKFKLGSDVQGAMEQADAAAKAGLQDAGKGTGQITSRAQVGGYIYSTATA”, the “soluble fraction (log2)” value is 0.142. Take “HMPEIFYRKIHRTDHDQIALDAEMIRLLIAIDEKKSLSQIAAEVQMEPMALKKNLGKLIQLGLVEPIK”: the “soluble fraction (log2)” value is -0.616. Turning to “HMPELSNNLDRDKVALKNFNESLKDGLTPAEAYANHLTNVSKAAQEAARQSNGLPVDIDKYHNSQLAASMA”, the “soluble fraction (log2)” value was 0.378. Turning to “HMPEMAIRTLRLRNQRGAAVAAEWSRITASLLELRQVEFVNPVDQLIVLKGPEPWAGVAEELVRQLDV”, the “soluble fraction (log2)” value is -2.55.

On to “HMPEQLLNTRIPLEFAGRRFDASLAELFPDYSRSRLAAWIKDGAARLDGETVAPRHTVRGGEQVEILVRM”, for which the “soluble fraction (log2)” value is -0.729.

On to “HMPERLTYVHPDGAEPMRADKALAAFLSGRISRSRLLGSFSAGKVMAGGKPVEKKLLLRAGDALEVELPEP”, for which the “soluble fraction (log2)” value was -0.239. Consider “HMPERMLEPLLNGNEIMKVTQLQPGPKVGLIRDALLQAQISGDVTDTESAKAFVQDYAKRNI”, for which the “soluble fraction (log2)” value was 0.0453. As to “HMPESETIMVDVKGAVQSEGVYELPSTARVNDAIEAAGGFSDQADKKSVNLAQKLSDEAVVYVASQGENV”, the “soluble fraction (log2)” value was found to be 0.76.

Take “HMPEVTMSYSARNQVVSFSKATQYEIVDEFGTVVLRGVGNQATLRYLSRGDYFVNFGAGTEVLKK”: the “soluble fraction (log2)” value was -0.0464.

Turning to “HMPEVYSFEVNEGAAGKRLDIFLSGEIEGLTRSFIQKLISEGMATVNQEPPRASYRVKTRDLVELQIPDPE”, the “soluble fraction (log2)” value is -0.334. In the case of “HMPFDWSAFDWKGWADEALAIIKTANQDQMNKWTEDNEKIIVQAETAAPDIYKTVGDEYDKKMESFN”, the “soluble fraction (log2)” value was determined as 0.0145. Regarding “HMPFESEMKHWIHLFAHELNLKVSDKYTQKIIEIFGNNFSEIFNEMSKSSLVSSNEKDLLNALEKSGNIH”, the “soluble fraction (log2)” value was -0.799. With “HMPFGIYGGKVSSLDDLKDKAAVLVPNDVSNEARALLLLEAQGLIKLKEGVGLEATRNDIVEN” the figure was not below 1.04.
